{
  "source": "the supplement of paper PMC10567573",
  "parents": {"B1": {"name": "TNNI2 (parent)", "chain": "DWRKNIEEKSGMEGRKKMFESES"}},
  "data": [
    {"variants_of": "B1", "assay": "protein stability index of a GFP-peptide fusion (GPS, HEK-293T) (PSI 1-6); higher = more stable", "conditions": "c terminus: native", "values": [
      {"variant": "DWRKNIEEKTGMEGRKKMFESES", "note": "[S10T]", "protein stability index": 2.47},
      {"variant": "DWRKNIEEKHGMEGRKKMFESES", "note": "[S10H]", "protein stability index": 2.29},
      {"variant": "DWRKNIEEKCGMEGRKKMFESES", "note": "[S10C]", "protein stability index": 1.81},
      {"variant": "DWRKNIEEYSGMEGRKKMFESES", "note": "[K9Y]", "protein stability index": 1.93},
      {"variant": "DWRKNIEESSGMEGRKKMFESES", "note": "[K9S]", "protein stability index": 3.35},
      {"variant": "DWRKNIEEISGMEGRKKMFESES", "note": "[K9I]", "protein stability index": 2.39},
      {"variant": "DWRKNIEEPSGMEGRKKMFESES", "note": "[K9P]", "protein stability index": 1.75},
      {"variant": "DWRKNIEEFSGMEGRKKMFESES", "note": "[K9F]", "protein stability index": 2.44},
      {"variant": "DWRKNIEENSGMEGRKKMFESES", "note": "[K9N]", "protein stability index": 2.58},
      {"variant": "DWRKNIEEHSGMEGRKKMFESES", "note": "[K9H]", "protein stability index": 2.4},
      {"variant": "DWRKNIEEWSGMEGRKKMFESES", "note": "[K9W]", "protein stability index": 2.34},
      {"variant": "DWRKNIEEQSGMEGRKKMFESES", "note": "[K9Q]", "protein stability index": 1.68},
      {"variant": "DWRKNIEEESGMEGRKKMFESES", "note": "[K9E]", "protein stability index": 2.13},
      {"variant": "DWRKNIEETSGMEGRKKMFESES", "note": "[K9T]", "protein stability index": 2.54},
      {"variant": "DWRKNIEEDSGMEGRKKMFESES", "note": "[K9D]", "protein stability index": 1.73},
      {"variant": "DWRKNIEELSGMEGRKKMFESES", "note": "[K9L]", "protein stability index": 2.51},
      {"variant": "DWRKNIEECSGMEGRKKMFESES", "note": "[K9C]", "protein stability index": 1.84},
      {"variant": "DWRKNIEEKSQMEGRKKMFESES", "note": "[G11Q]", "protein stability index": 1.18},
      {"variant": "DWRKNIEEKSCMEGRKKMFESES", "note": "[G11C]", "protein stability index": 1.52},
      {"variant": "DWRKNIEEKSTMEGRKKMFESES", "note": "[G11T]", "protein stability index": 1.58},
      {"variant": "DWRKNIEEKSRMEGRKKMFESES", "note": "[G11R]", "protein stability index": 2.35},
      {"variant": "DWRKNIEEKSMMEGRKKMFESES", "note": "[G11M]", "protein stability index": 1.9},
      {"variant": "DWRKNIEEKSNMEGRKKMFESES", "note": "[G11N]", "protein stability index": 1.94},
      {"variant": "DWRKNIEEKSEMEGRKKMFESES", "note": "[G11E]", "protein stability index": 3.21},
      {"variant": "DWRKNIEEKSKMEGRKKMFESES", "note": "[G11K]", "protein stability index": 3.5},
      {"variant": "DWRKNIEEKSSMEGRKKMFESES", "note": "[G11S]", "protein stability index": 2.6},
      {"variant": "DWRKNIEEKSDMEGRKKMFESES", "note": "[G11D]", "protein stability index": 1.99},
      {"variant": "DWRKNIEEKSYMEGRKKMFESES", "note": "[G11Y]", "protein stability index": 1.45},
      {"variant": "DWRKNIEEKSLMEGRKKMFESES", "note": "[G11L]", "protein stability index": 2.77},
      {"variant": "DWRKNIEEKSAMEGRKKMFESES", "note": "[G11A]", "protein stability index": 2.57},
      {"variant": "DWRKNIEEKSVMEGRKKMFESES", "note": "[G11V]", "protein stability index": 2},
      {"variant": "DWRKNIEEKSHMEGRKKMFESES", "note": "[G11H]", "protein stability index": 1.76},
      {"variant": "DWRKNILEKSGMEGRKKMFESES", "note": "[E7L]", "protein stability index": 2.17},
      {"variant": "DWRKNIIEKSGMEGRKKMFESES", "note": "[E7I]", "protein stability index": 1.75},
      {"variant": "DWRKNIHEKSGMEGRKKMFESES", "note": "[E7H]", "protein stability index": 1.84},
      {"variant": "DWRKNIREKSGMEGRKKMFESES", "note": "[E7R]", "protein stability index": 2.8},
      {"variant": "DWRKNIYEKSGMEGRKKMFESES", "note": "[E7Y]", "protein stability index": 2.12},
      {"variant": "DWRKNICEKSGMEGRKKMFESES", "note": "[E7C]", "protein stability index": 2.01},
      {"variant": "DWRKNIQEKSGMEGRKKMFESES", "note": "[E7Q]", "protein stability index": 2.56},
      {"variant": "DWRKNIVEKSGMEGRKKMFESES", "note": "[E7V]", "protein stability index": 2.26},
      {"variant": "DWRKNINEKSGMEGRKKMFESES", "note": "[E7N]", "protein stability index": 2.79},
      {"variant": "DWRKNIMEKSGMEGRKKMFESES", "note": "[E7M]", "protein stability index": 2.25},
      {"variant": "DWRKNITEKSGMEGRKKMFESES", "note": "[E7T]", "protein stability index": 2.82},
      {"variant": "DWRKNIPEKSGMEGRKKMFESES", "note": "[E7P]", "protein stability index": 2.85},
      {"variant": "DWRKNIWEKSGMEGRKKMFESES", "note": "[E7W]", "protein stability index": 2.01},
      {"variant": "DWRKNIFEKSGMEGRKKMFESES", "note": "[E7F]", "protein stability index": 1.77},
      {"variant": "DWRKNIDEKSGMEGRKKMFESES", "note": "[E7D]", "protein stability index": 3},
      {"variant": "DWRKNIGEKSGMEGRKKMFESES", "note": "[E7G]", "protein stability index": 1.83},
      {"variant": "DWRKNIAEKSGMEGRKKMFESES", "note": "[E7A]", "protein stability index": 2.16},
      {"variant": "DWRKNISEKSGMEGRKKMFESES", "note": "[E7S]", "protein stability index": 1.76},
      {"variant": "DWRKNIKEKSGMEGRKKMFESES", "note": "[E7K]", "protein stability index": 2.62},
      {"variant": "DWRKNSEEKSGMEGRKKMFESES", "note": "[I6S]", "protein stability index": 2.54},
      {"variant": "DWRKNTEEKSGMEGRKKMFESES", "note": "[I6T]", "protein stability index": 3.26},
      {"variant": "DWRKNVEEKSGMEGRKKMFESES", "note": "[I6V]", "protein stability index": 2.09},
      {"variant": "DWRKNREEKSGMEGRKKMFESES", "note": "[I6R]", "protein stability index": 2.09},
      {"variant": "DWRKNYEEKSGMEGRKKMFESES", "note": "[I6Y]", "protein stability index": 1.88},
      {"variant": "DWRKNIEEKSGMEGRKKGFESES", "note": "[M18G]", "protein stability index": 5.42},
      {"variant": "DWRKNIEEKSGMEGRKKEFESES", "note": "[M18E]", "protein stability index": 4.34},
      {"variant": "DWRKNIEEKSGMEGRKKHFESES", "note": "[M18H]", "protein stability index": 2.7},
      {"variant": "DWRKNIEEKSGMEGRKKIFESES", "note": "[M18I]", "protein stability index": 1.98},
      {"variant": "DWRKNIEEKSGMEGRKKAFESES", "note": "[M18A]", "protein stability index": 2.26},
      {"variant": "DWRKNIEEKSGMEGRKKDFESES", "note": "[M18D]", "protein stability index": 6},
      {"variant": "DWRKNIEEKSGMEGRKKCFESES", "note": "[M18C]", "protein stability index": 3.89},
      {"variant": "DWRKNIEEKSGDEGRKKMFESES", "note": "[M12D]", "protein stability index": 2.52},
      {"variant": "DWRKNIEEKSGYEGRKKMFESES", "note": "[M12Y]", "protein stability index": 2.94},
      {"variant": "DWRKNIEEKSGCEGRKKMFESES", "note": "[M12C]", "protein stability index": 2.71},
      {"variant": "DWRKNIEEKSGWEGRKKMFESES", "note": "[M12W]", "protein stability index": 1.39},
      {"variant": "DWRKNIEEKSGNEGRKKMFESES", "note": "[M12N]", "protein stability index": 2.89},
      {"variant": "DWRKNIEEKSGKEGRKKMFESES", "note": "[M12K]", "protein stability index": 2.72},
      {"variant": "DWRKNIEEKSGLEGRKKMFESES", "note": "[M12L]", "protein stability index": 2.13},
      {"variant": "DWRKNIEEKSGQEGRKKMFESES", "note": "[M12Q]", "protein stability index": 2.02},
      {"variant": "DWRKNIEEKSGVEGRKKMFESES", "note": "[M12V]", "protein stability index": 2.39},
      {"variant": "DWRKNIEEKSGPEGRKKMFESES", "note": "[M12P]", "protein stability index": 1.96},
      {"variant": "DWRKNIEEKSGSEGRKKMFESES", "note": "[M12S]", "protein stability index": 2.5},
      {"variant": "DWRKNIEEKSGTEGRKKMFESES", "note": "[M12T]", "protein stability index": 3.47},
      {"variant": "DWRKNIEEKSGFEGRKKMFESES", "note": "[M12F]", "protein stability index": 2.38},
      {"variant": "DWRKNIEEKSGIEGRKKMFESES", "note": "[M12I]", "protein stability index": 3.01},
      {"variant": "DWRKNIEEKSGEEGRKKMFESES", "note": "[M12E]", "protein stability index": 2.47},
      {"variant": "DWRKNIEEKSGREGRKKMFESES", "note": "[M12R]", "protein stability index": 2.74},
      {"variant": "DWRKNIEEKSGHEGRKKMFESES", "note": "[M12H]", "protein stability index": 2.42},
      {"variant": "DWRKNIEEKSGMEGRKMMFESES", "note": "[K17M]", "protein stability index": 2.42},
      {"variant": "DWRKNIEEKSGMEGRKTMFESES", "note": "[K17T]", "protein stability index": 2.39},
      {"variant": "DWRKNIEEKSGMEGRKVMFESES", "note": "[K17V]", "protein stability index": 3.07},
      {"variant": "DWRKNIEEKSGMEGRKNMFESES", "note": "[K17N]", "protein stability index": 2.56},
      {"variant": "DWRKNIEEKSGMEGRKSMFESES", "note": "[K17S]", "protein stability index": 2.82},
      {"variant": "DWRKNIEEKSGMEGRKDMFESES", "note": "[K17D]", "protein stability index": 2.83},
      {"variant": "DWRKNIEEKSGMEGRKPMFESES", "note": "[K17P]", "protein stability index": 3.08},
      {"variant": "DWRKNIEEKSGMEGRKIMFESES", "note": "[K17I]", "protein stability index": 3.32},
      {"variant": "DWRKNIEEKSGMEGRKEMFESES", "note": "[K17E]", "protein stability index": 2.36},
      {"variant": "DWRKNIEEKSGMEGRKAMFESES", "note": "[K17A]", "protein stability index": 2.25},
      {"variant": "DWRKNIEEKSGMEGRKQMFESES", "note": "[K17Q]", "protein stability index": 2.39},
      {"variant": "DWRKNIEEKSGMEGRKFMFESES", "note": "[K17F]", "protein stability index": 2.48},
      {"variant": "DWRKNIEEKSGMEGRKLMFESES", "note": "[K17L]", "protein stability index": 2.01},
      {"variant": "DWRKNIEEKSGMEGRKHMFESES", "note": "[K17H]", "protein stability index": 3.84},
      {"variant": "DWRKNIEEKSGMEGRKCMFESES", "note": "[K17C]", "protein stability index": 2.41},
      {"variant": "DWRKNIEEKSGMEGRKYMFESES", "note": "[K17Y]", "protein stability index": 2.6},
      {"variant": "DWRKNIEEKSGMEGRKRMFESES", "note": "[K17R]", "protein stability index": 1.97}
    ]}
  ]
}
